Assay results from patent US20220204580A1 (AstraZeneca / MedImmune, published 2022).
Numbered stars: 1 amine (or outer) side, 2 acyl side, 3 side chain; on linkers, the order of the positions; unused ones are H or OH. Bridge positions count the residues as written; N and C are the ends. Square brackets hold non-standard residues; d marks the D form. Side chains are listed from the residue outwards. Ends that are not written are not given here. * marks the point of attachment. C18 diacid = O=C(O)CCCCCCCCCCCCCCCCC(=O)*; γGlu = O=C(O)[C@H](CCC(=O)[*:2])N[*:1]; AEEA = NCCOCCOCC(=O)O; Aib = CC(C)(N)C(=O)O

T1: human calcitonin receptor (human, UniProt P30988 25-474)
T1 sequence (looked up): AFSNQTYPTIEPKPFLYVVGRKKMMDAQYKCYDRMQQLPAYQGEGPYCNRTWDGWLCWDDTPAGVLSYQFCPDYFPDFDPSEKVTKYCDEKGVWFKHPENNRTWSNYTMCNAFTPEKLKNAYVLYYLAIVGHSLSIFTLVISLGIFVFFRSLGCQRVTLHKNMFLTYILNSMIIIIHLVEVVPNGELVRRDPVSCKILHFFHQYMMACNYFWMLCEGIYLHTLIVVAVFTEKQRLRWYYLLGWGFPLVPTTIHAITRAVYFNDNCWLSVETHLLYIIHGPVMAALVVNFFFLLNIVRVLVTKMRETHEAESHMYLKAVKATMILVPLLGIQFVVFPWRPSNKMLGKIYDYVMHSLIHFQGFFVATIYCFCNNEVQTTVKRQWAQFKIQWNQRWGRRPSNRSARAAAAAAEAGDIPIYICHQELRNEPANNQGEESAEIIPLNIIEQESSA

T2: human amylin receptor (calcitonin receptor co-expressed with receptor activity modifying protein, RAMP3) (human, UniProt P30988 25-474; O60896 24-148)
T2 sequence (looked up) 1: T1 sequence (looked up)
T2 sequence (looked up) 2: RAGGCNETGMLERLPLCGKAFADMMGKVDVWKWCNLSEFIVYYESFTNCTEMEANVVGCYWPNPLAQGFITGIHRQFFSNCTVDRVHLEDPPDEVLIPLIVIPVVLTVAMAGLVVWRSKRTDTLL

B1: Peptide 56 (SEQ ID NO: 56) (peptide)
peptide: K([γGlu-C18 diacid])CNTATCATQRLANFLVHSS[Aib]NFGPILPPTNVGSNTY-NH2
modifications: disulfide 2-7; N-terminus assumed
SMILES: CC[C@H](C)[C@H](NC(=O)[C@@H]1CCCN1C(=O)CNC(=O)[C@H](Cc1ccccc1)NC(=O)[C@H](CC(N)=O)NC(=O)C(C)(C)NC(=O)[C@H](CO)NC(=O)[C@H](CO)NC(=O)[C@H](Cc1c[nH]cn1)NC(=O)[C@@H](NC(=O)[C@H](CC(C)C)NC(=O)[C@H](Cc1ccccc1)NC(=O)[C@H](CC(N)=O)NC(=O)[C@H](C)NC(=O)[C@H](CC(C)C)NC(=O)[C@H](CCCNC(=N)N)NC(=O)[C@H](CCC(N)=O)NC(=O)[C@@H](NC(=O)[C@H](C)NC(=O)[C@@H]1CSSC[C@H](NC(=O)[C@@H](N)CCCCNC(=O)CC[C@H](NC(=O)CCCCCCCCCCCCCCCCC(=O)O)C(=O)O)C(=O)N[C@@H](CC(N)=O)C(=O)N[C@@H]([C@@H](C)O)C(=O)N[C@@H](C)C(=O)N[C@@H]([C@@H](C)O)C(=O)N1)[C@@H](C)O)C(C)C)C(=O)N[C@@H](CC(C)C)C(=O)N1CCC[C@H]1C(=O)N1CCC[C@H]1C(=O)N[C@H](C(=O)N[C@@H](CC(N)=O)C(=O)N[C@H](C(=O)NCC(=O)N[C@@H](CO)C(=O)N[C@@H](CC(N)=O)C(=O)N[C@H](C(=O)N[C@@H](Cc1ccc(O)cc1)C(N)=O)[C@@H](C)O)C(C)C)[C@@H](C)O
B2: Peptide 55 (SEQ ID NO: 55) (peptide)
peptide: K([γGlu-C18 diacid])KCNTATCATQRLANFLSHSS[Aib]NFGPILPPTNVGSPTY-NH2
modifications: disulfide 3-8; N-terminus assumed
SMILES: CC[C@H](C)[C@H](NC(=O)[C@@H]1CCCN1C(=O)CNC(=O)[C@H](Cc1ccccc1)NC(=O)[C@H](CC(N)=O)NC(=O)C(C)(C)NC(=O)[C@H](CO)NC(=O)[C@H](CO)NC(=O)[C@H](Cc1c[nH]cn1)NC(=O)[C@H](CO)NC(=O)[C@H](CC(C)C)NC(=O)[C@H](Cc1ccccc1)NC(=O)[C@H](CC(N)=O)NC(=O)[C@H](C)NC(=O)[C@H](CC(C)C)NC(=O)[C@H](CCCNC(=N)N)NC(=O)[C@H](CCC(N)=O)NC(=O)[C@@H](NC(=O)[C@H](C)NC(=O)[C@@H]1CSSC[C@H](NC(=O)[C@H](CCCCN)NC(=O)[C@@H](N)CCCCNC(=O)CC[C@H](NC(=O)CCCCCCCCCCCCCCCCC(=O)O)C(=O)O)C(=O)N[C@@H](CC(N)=O)C(=O)N[C@@H]([C@@H](C)O)C(=O)N[C@@H](C)C(=O)N[C@@H]([C@@H](C)O)C(=O)N1)[C@@H](C)O)C(=O)N[C@@H](CC(C)C)C(=O)N1CCC[C@H]1C(=O)N1CCC[C@H]1C(=O)N[C@H](C(=O)N[C@@H](CC(N)=O)C(=O)N[C@H](C(=O)NCC(=O)N[C@@H](CO)C(=O)N1CCC[C@H]1C(=O)N[C@H](C(=O)N[C@@H](Cc1ccc(O)cc1)C(N)=O)[C@@H](C)O)C(C)C)[C@@H](C)O
B3: Peptide 53 (SEQ ID NO: 53) (peptide)
peptide: K([γGlu-C18 diacid])KCNTATCATQRLANFLSHSS[Aib]NFGPILPPTPVGSNTY-NH2
modifications: disulfide 3-8; N-terminus assumed
SMILES: CC[C@H](C)[C@H](NC(=O)[C@@H]1CCCN1C(=O)CNC(=O)[C@H](Cc1ccccc1)NC(=O)[C@H](CC(N)=O)NC(=O)C(C)(C)NC(=O)[C@H](CO)NC(=O)[C@H](CO)NC(=O)[C@H](Cc1c[nH]cn1)NC(=O)[C@H](CO)NC(=O)[C@H](CC(C)C)NC(=O)[C@H](Cc1ccccc1)NC(=O)[C@H](CC(N)=O)NC(=O)[C@H](C)NC(=O)[C@H](CC(C)C)NC(=O)[C@H](CCCNC(=N)N)NC(=O)[C@H](CCC(N)=O)NC(=O)[C@@H](NC(=O)[C@H](C)NC(=O)[C@@H]1CSSC[C@H](NC(=O)[C@H](CCCCN)NC(=O)[C@@H](N)CCCCNC(=O)CC[C@H](NC(=O)CCCCCCCCCCCCCCCCC(=O)O)C(=O)O)C(=O)N[C@@H](CC(N)=O)C(=O)N[C@@H]([C@@H](C)O)C(=O)N[C@@H](C)C(=O)N[C@@H]([C@@H](C)O)C(=O)N1)[C@@H](C)O)C(=O)N[C@@H](CC(C)C)C(=O)N1CCC[C@H]1C(=O)N1CCC[C@H]1C(=O)N[C@H](C(=O)N1CCC[C@H]1C(=O)N[C@H](C(=O)NCC(=O)N[C@@H](CO)C(=O)N[C@@H](CC(N)=O)C(=O)N[C@H](C(=O)N[C@@H](Cc1ccc(O)cc1)C(N)=O)[C@@H](C)O)C(C)C)[C@@H](C)O
B4: Peptide 54 (SEQ ID NO: 54) (peptide)
peptide: K([γGlu-C18 diacid])KCNTATCATQRLANFLSHSS[Aib]NFGPILPPTNVPSNTY-NH2
modifications: disulfide 3-8; N-terminus assumed
SMILES: CC[C@H](C)[C@H](NC(=O)[C@@H]1CCCN1C(=O)CNC(=O)[C@H](Cc1ccccc1)NC(=O)[C@H](CC(N)=O)NC(=O)C(C)(C)NC(=O)[C@H](CO)NC(=O)[C@H](CO)NC(=O)[C@H](Cc1c[nH]cn1)NC(=O)[C@H](CO)NC(=O)[C@H](CC(C)C)NC(=O)[C@H](Cc1ccccc1)NC(=O)[C@H](CC(N)=O)NC(=O)[C@H](C)NC(=O)[C@H](CC(C)C)NC(=O)[C@H](CCCNC(=N)N)NC(=O)[C@H](CCC(N)=O)NC(=O)[C@@H](NC(=O)[C@H](C)NC(=O)[C@@H]1CSSC[C@H](NC(=O)[C@H](CCCCN)NC(=O)[C@@H](N)CCCCNC(=O)CC[C@H](NC(=O)CCCCCCCCCCCCCCCCC(=O)O)C(=O)O)C(=O)N[C@@H](CC(N)=O)C(=O)N[C@@H]([C@@H](C)O)C(=O)N[C@@H](C)C(=O)N[C@@H]([C@@H](C)O)C(=O)N1)[C@@H](C)O)C(=O)N[C@@H](CC(C)C)C(=O)N1CCC[C@H]1C(=O)N1CCC[C@H]1C(=O)N[C@H](C(=O)N[C@@H](CC(N)=O)C(=O)N[C@H](C(=O)N1CCC[C@H]1C(=O)N[C@@H](CO)C(=O)N[C@@H](CC(N)=O)C(=O)N[C@H](C(=O)N[C@@H](Cc1ccc(O)cc1)C(N)=O)[C@@H](C)O)C(C)C)[C@@H](C)O

Target: T1, human calcitonin receptor
Test: cell-based or functional assay

| Binder | EC50 (cAMP production) [pM] |
| --- | --- |
| B1 | 493 |
| B2 | 1870 |
| B3 | 235 |
| K([AEEA-AEEA-γGlu-C18 diacid])GGGKCNTATCATQRLANFLVHSSNNFGPILPPTNVGSNTY-NH2 (disulfide 6-11) [Peptide 7 (SEQ ID NO: 7)] | 2160 |
| B4 | 1510 |

Target: T2, human amylin receptor (calcitonin …)
Test: cell-based or functional assay

| Binder | EC50 (cAMP production) [pM] | Ratio (EC50 hCTR / EC50 hAMYR3) |
| --- | --- | --- |
| B1 | 70 | 7 |
| B2 | 678 | 3 |
| B3 | 98 | 2 |
| K([AEEA-AEEA-γGlu-C18 diacid])GGGKCNTATCATQRLANFLVHSSNNFGPILPPTNVGSNTY-NH2 (disulfide 6-11) [Peptide 7 (SEQ ID NO: 7)] | 173 | 12 |
| B4 | 7590 | 0.2 |
